One may read the IC50 as the concentration needed to halve the response being measured.

Assay [1] has as its target T1, human calcitonin receptor (human, UniProt P30988 25-474).
T1 construct: whole, on cells; Assay used cell membranes, not intact cells; also called hCTR; hCT
T1 sequence (looked up): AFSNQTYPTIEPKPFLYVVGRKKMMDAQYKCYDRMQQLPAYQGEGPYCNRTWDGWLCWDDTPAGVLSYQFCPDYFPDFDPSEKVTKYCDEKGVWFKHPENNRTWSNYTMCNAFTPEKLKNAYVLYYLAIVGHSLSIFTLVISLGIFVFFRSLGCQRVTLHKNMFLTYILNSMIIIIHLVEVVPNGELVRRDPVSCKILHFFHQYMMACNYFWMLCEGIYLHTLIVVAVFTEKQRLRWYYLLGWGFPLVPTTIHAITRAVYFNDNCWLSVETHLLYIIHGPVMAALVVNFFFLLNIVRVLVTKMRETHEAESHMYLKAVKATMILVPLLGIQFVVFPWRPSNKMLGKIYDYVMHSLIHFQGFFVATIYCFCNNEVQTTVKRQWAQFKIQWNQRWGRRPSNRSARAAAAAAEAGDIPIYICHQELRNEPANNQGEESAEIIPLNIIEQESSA
Kind of assay: ratio IC50 hCTR / IC50 hAmylin-R (reference: human amylin receptor), SPA competition assays. An outline of the steps: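 Scintillation proximity competition binding on cell membranes at 35 ng/μL with SPA beads, in 50 mM Hepes pH 7.4, 1 mM CaCl2, 5 mM MgCl₂, 0.1% OA, 0.02% Tween20. Incubated 120 min at 25° C with shaking. IC₅₀ from one-site competition fit.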

In assay [2] the target is T1, human calcitonin receptor. Description: SPA competition with 125I-calcitonin on membranes of BHK cells with human calcitonin receptor (Assay VII). The essentials: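 BHK hCTR membranes 35 ng/μL + SPA beads 0.05 mg/well; buffer 50 mM Hepes pH 7.4, 1 mM CaCl2, 5 mM MgCl₂, 0.1% OA, 0.02% Tween20. 120 min, 25° C., shaking. Scintillation count; IC50 by one-site binding competition.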

The target of assay [3] is T2, human amylin receptor (amylin 3(a) receptor: human calcitonin receptor with RAMP-3) (human, UniProt P30988 25-474; O60896 24-148).
T2 construct: whole, on cells; Assay used cell membranes of the Amylin 3(a)/CRE-luc BHK cells, not intact cells; also called hAmylin-R; hAmylinR
T2 sequence (looked up) 1: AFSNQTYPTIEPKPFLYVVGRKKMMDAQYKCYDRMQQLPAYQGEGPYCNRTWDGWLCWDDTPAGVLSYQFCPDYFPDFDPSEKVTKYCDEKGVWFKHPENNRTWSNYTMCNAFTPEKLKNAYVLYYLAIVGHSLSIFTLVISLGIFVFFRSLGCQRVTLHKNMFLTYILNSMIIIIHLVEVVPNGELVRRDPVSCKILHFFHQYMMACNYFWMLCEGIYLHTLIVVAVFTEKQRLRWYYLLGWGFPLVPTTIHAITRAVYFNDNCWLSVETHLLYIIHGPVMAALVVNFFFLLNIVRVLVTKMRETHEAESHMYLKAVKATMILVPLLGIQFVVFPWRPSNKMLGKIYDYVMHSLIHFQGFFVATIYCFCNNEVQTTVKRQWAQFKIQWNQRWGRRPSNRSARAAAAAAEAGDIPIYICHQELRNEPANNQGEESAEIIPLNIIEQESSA
T2 sequence (looked up) 2: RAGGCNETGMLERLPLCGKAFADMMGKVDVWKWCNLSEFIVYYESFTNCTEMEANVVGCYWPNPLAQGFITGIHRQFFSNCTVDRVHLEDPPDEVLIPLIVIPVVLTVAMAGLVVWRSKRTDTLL
Kind of assay: SPA competition with 125I-rat amylin on membranes of BHK cells with human calcitonin receptor and RAMP-3 (Assay V). An outline of the steps: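 Membranes from BHK Amylin 3(a)/CRE-luc cells (35 ng/μL final) were mixed with SPA beads and test compounds in 50 mM Hepes pH 7.4 with 1 mM CaCl2, 5 mM MgCl₂, 0.1% OA and 0.02% Tween20. Incubation ran 120 min at 25° C with shaking; IC₅₀ came from one-site competition fitting.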

Numbered stars: 1 amine (or outer) side, 2 acyl side, 3 side chain; on linkers, the order of the positions; unused ones are H or OH. Bridge positions count the residues as written; N and C are the ends. Side chains are listed from the residue outwards. Ends that are not written are not given here. * marks the point of attachment. C20 diacid = O=C(O)CCCCCCCCCCCCCCCCCCC(=O)*; γGlu = O=C(O)[C@H](CCC(=O)[*:2])N[*:1]

B1: N^ε1-[(4S)-4-carboxy-4-(19-carboxynonadecanoylamino)butanoyl]-[His14,Arg17,Pro21,Pro27,Arg34]-h-amylin (peptide)
peptide: K([γGlu-C20 diacid])CNTATCATQRLAHFLRHSSPNFGAIPSSTNVGRNTY-NH2
modifications: disulfide 2-7; N-terminus assumed
SMILES: CC[C@H](C)[C@H](NC(=O)[C@H](C)NC(=O)CNC(=O)[C@H](Cc1ccccc1)NC(=O)[C@H](CC(N)=O)NC(=O)[C@@H]1CCCN1C(=O)[C@H](CO)NC(=O)[C@H](CO)NC(=O)[C@H](Cc1c[nH]cn1)NC(=O)[C@H](CCCNC(=N)N)NC(=O)[C@H](CC(C)C)NC(=O)[C@H](Cc1ccccc1)NC(=O)[C@H](Cc1c[nH]cn1)NC(=O)[C@H](C)NC(=O)[C@H](CC(C)C)NC(=O)[C@H](CCCNC(=N)N)NC(=O)[C@H](CCC(N)=O)NC(=O)[C@@H](NC(=O)[C@H](C)NC(=O)[C@@H]1CSSC[C@H](NC(=O)[C@@H](N)CCCCNC(=O)CC[C@H](NC(=O)CCCCCCCCCCCCCCCCCCC(=O)O)C(=O)O)C(=O)N[C@@H](CC(N)=O)C(=O)N[C@@H]([C@@H](C)O)C(=O)N[C@@H](C)C(=O)N[C@@H]([C@@H](C)O)C(=O)N1)[C@@H](C)O)C(=O)N1CCC[C@H]1C(=O)N[C@@H](CO)C(=O)N[C@@H](CO)C(=O)N[C@H](C(=O)N[C@@H](CC(N)=O)C(=O)N[C@H](C(=O)NCC(=O)N[C@@H](CCCNC(=N)N)C(=O)N[C@@H](CC(N)=O)C(=O)N[C@H](C(=O)N[C@@H](Cc1ccc(O)cc1)C(N)=O)[C@@H](C)O)C(C)C)[C@@H](C)O
notes: also called compound 85
As to B1, in assay [1], the “Ratio hCT/hAmylin binding” value is 91.8. In addition, the IC50 in assay [2] was 80.4 nM; in assay [3], 0.876 nM.

B2: N^ε1-[(4S)-4-carboxy-4-(19-carboxynonadecanoylamino)butanoyl]-[His14,Arg17,Pro21,Pro27,His34]-h-amylin (peptide)
peptide: K([γGlu-C20 diacid])CNTATCATQRLAHFLRHSSPNFGAIPSSTNVGHNTY-NH2
modifications: disulfide 2-7; N-terminus assumed
SMILES: CC[C@H](C)[C@H](NC(=O)[C@H](C)NC(=O)CNC(=O)[C@H](Cc1ccccc1)NC(=O)[C@H](CC(N)=O)NC(=O)[C@@H]1CCCN1C(=O)[C@H](CO)NC(=O)[C@H](CO)NC(=O)[C@H](Cc1c[nH]cn1)NC(=O)[C@H](CCCNC(=N)N)NC(=O)[C@H](CC(C)C)NC(=O)[C@H](Cc1ccccc1)NC(=O)[C@H](Cc1c[nH]cn1)NC(=O)[C@H](C)NC(=O)[C@H](CC(C)C)NC(=O)[C@H](CCCNC(=N)N)NC(=O)[C@H](CCC(N)=O)NC(=O)[C@@H](NC(=O)[C@H](C)NC(=O)[C@@H]1CSSC[C@H](NC(=O)[C@@H](N)CCCCNC(=O)CC[C@H](NC(=O)CCCCCCCCCCCCCCCCCCC(=O)O)C(=O)O)C(=O)N[C@@H](CC(N)=O)C(=O)N[C@@H]([C@@H](C)O)C(=O)N[C@@H](C)C(=O)N[C@@H]([C@@H](C)O)C(=O)N1)[C@@H](C)O)C(=O)N1CCC[C@H]1C(=O)N[C@@H](CO)C(=O)N[C@@H](CO)C(=O)N[C@H](C(=O)N[C@@H](CC(N)=O)C(=O)N[C@H](C(=O)NCC(=O)N[C@@H](Cc1c[nH]cn1)C(=O)N[C@@H](CC(N)=O)C(=O)N[C@H](C(=O)N[C@@H](Cc1ccc(O)cc1)C(N)=O)[C@@H](C)O)C(C)C)[C@@H](C)O
notes: also called compound 81
For B2, the “Ratio hCT/hAmylin binding” value in assay [1] turned out to be 87.2. In addition, the results for the IC50 in assay [2] and in assay [3] were 23.6 nM and 0.271 nM, respectively.

B3: N^ε1-[(4S)-4-carboxy-4-[[(4S)-4-carboxy-4-(19-carboxynonadecanoylamino)butanoyl]amino]butanoyl]-[Arg17,Pro21,Pro27,Pro31,Pro34,Arg35]-h-amylin (peptide)
peptide: K([γGlu-γGlu-C20 diacid])CNTATCATQRLANFLRHSSPNFGAIPSSTPVGPRTY-NH2
modifications: disulfide 2-7; N-terminus assumed
SMILES: CC[C@H](C)[C@H](NC(=O)[C@H](C)NC(=O)CNC(=O)[C@H](Cc1ccccc1)NC(=O)[C@H](CC(N)=O)NC(=O)[C@@H]1CCCN1C(=O)[C@H](CO)NC(=O)[C@H](CO)NC(=O)[C@H](Cc1c[nH]cn1)NC(=O)[C@H](CCCNC(=N)N)NC(=O)[C@H](CC(C)C)NC(=O)[C@H](Cc1ccccc1)NC(=O)[C@H](CC(N)=O)NC(=O)[C@H](C)NC(=O)[C@H](CC(C)C)NC(=O)[C@H](CCCNC(=N)N)NC(=O)[C@H](CCC(N)=O)NC(=O)[C@@H](NC(=O)[C@H](C)NC(=O)[C@@H]1CSSC[C@H](NC(=O)[C@@H](N)CCCCNC(=O)CC[C@H](NC(=O)CC[C@H](NC(=O)CCCCCCCCCCCCCCCCCCC(=O)O)C(=O)O)C(=O)O)C(=O)N[C@@H](CC(N)=O)C(=O)N[C@@H]([C@@H](C)O)C(=O)N[C@@H](C)C(=O)N[C@@H]([C@@H](C)O)C(=O)N1)[C@@H](C)O)C(=O)N1CCC[C@H]1C(=O)N[C@@H](CO)C(=O)N[C@@H](CO)C(=O)N[C@H](C(=O)N1CCC[C@H]1C(=O)N[C@H](C(=O)NCC(=O)N1CCC[C@H]1C(=O)N[C@@H](CCCNC(=N)N)C(=O)N[C@H](C(=O)N[C@@H](Cc1ccc(O)cc1)C(N)=O)[C@@H](C)O)C(C)C)[C@@H](C)O
Take B3: in assay [1], the “Ratio hCT/hAmylin binding” value was 48.6. Besides, the IC50 stood at 42.8 nM in assay [2] and 0.88 nM in assay [3].

B4: N^ε1-[(4S)-4-carboxy-4-(19-carboxynonadecanoylamino)butanoyl]-[His14,Arg17,Pro21,Pro27,Pro31,Pro34]-h-amylin (peptide)
peptide: K([γGlu-C20 diacid])CNTATCATQRLAHFLRHSSPNFGAIPSSTPVGPNTY-NH2
modifications: disulfide 2-7; N-terminus assumed
SMILES: CC[C@H](C)[C@H](NC(=O)[C@H](C)NC(=O)CNC(=O)[C@H](Cc1ccccc1)NC(=O)[C@H](CC(N)=O)NC(=O)[C@@H]1CCCN1C(=O)[C@H](CO)NC(=O)[C@H](CO)NC(=O)[C@H](Cc1c[nH]cn1)NC(=O)[C@H](CCCNC(=N)N)NC(=O)[C@H](CC(C)C)NC(=O)[C@H](Cc1ccccc1)NC(=O)[C@H](Cc1c[nH]cn1)NC(=O)[C@H](C)NC(=O)[C@H](CC(C)C)NC(=O)[C@H](CCCNC(=N)N)NC(=O)[C@H](CCC(N)=O)NC(=O)[C@@H](NC(=O)[C@H](C)NC(=O)[C@@H]1CSSC[C@H](NC(=O)[C@@H](N)CCCCNC(=O)CC[C@H](NC(=O)CCCCCCCCCCCCCCCCCCC(=O)O)C(=O)O)C(=O)N[C@@H](CC(N)=O)C(=O)N[C@@H]([C@@H](C)O)C(=O)N[C@@H](C)C(=O)N[C@@H]([C@@H](C)O)C(=O)N1)[C@@H](C)O)C(=O)N1CCC[C@H]1C(=O)N[C@@H](CO)C(=O)N[C@@H](CO)C(=O)N[C@H](C(=O)N1CCC[C@H]1C(=O)N[C@H](C(=O)NCC(=O)N1CCC[C@H]1C(=O)N[C@@H](CC(N)=O)C(=O)N[C@H](C(=O)N[C@@H](Cc1ccc(O)cc1)C(N)=O)[C@@H](C)O)C(C)C)[C@@H](C)O
As to B4, the “Ratio hCT/hAmylin binding” value in assay [1] is 24.8. For the same molecule, the values for the IC50 in assay [2] and in assay [3] were 2.04 nM and 0.082 nM, respectively.

B5: N^ε1-[(4S)-4-carboxy-4-[[(4S)-4-carboxy-4-(19-carboxynonadecanoylamino)butanoyl]amino]butanoyl]-[Arg17,Pro21,Pro27,His34]-h-amylin (peptide)
peptide: K([γGlu-γGlu-C20 diacid])CNTATCATQRLANFLRHSSPNFGAIPSSTNVGHNTY-NH2
modifications: disulfide 2-7; N-terminus assumed
SMILES: CC[C@H](C)[C@H](NC(=O)[C@H](C)NC(=O)CNC(=O)[C@H](Cc1ccccc1)NC(=O)[C@H](CC(N)=O)NC(=O)[C@@H]1CCCN1C(=O)[C@H](CO)NC(=O)[C@H](CO)NC(=O)[C@H](Cc1c[nH]cn1)NC(=O)[C@H](CCCNC(=N)N)NC(=O)[C@H](CC(C)C)NC(=O)[C@H](Cc1ccccc1)NC(=O)[C@H](CC(N)=O)NC(=O)[C@H](C)NC(=O)[C@H](CC(C)C)NC(=O)[C@H](CCCNC(=N)N)NC(=O)[C@H](CCC(N)=O)NC(=O)[C@@H](NC(=O)[C@H](C)NC(=O)[C@@H]1CSSC[C@H](NC(=O)[C@@H](N)CCCCNC(=O)CC[C@H](NC(=O)CC[C@H](NC(=O)CCCCCCCCCCCCCCCCCCC(=O)O)C(=O)O)C(=O)O)C(=O)N[C@@H](CC(N)=O)C(=O)N[C@@H]([C@@H](C)O)C(=O)N[C@@H](C)C(=O)N[C@@H]([C@@H](C)O)C(=O)N1)[C@@H](C)O)C(=O)N1CCC[C@H]1C(=O)N[C@@H](CO)C(=O)N[C@@H](CO)C(=O)N[C@H](C(=O)N[C@@H](CC(N)=O)C(=O)N[C@H](C(=O)NCC(=O)N[C@@H](Cc1c[nH]cn1)C(=O)N[C@@H](CC(N)=O)C(=O)N[C@H](C(=O)N[C@@H](Cc1ccc(O)cc1)C(N)=O)[C@@H](C)O)C(C)C)[C@@H](C)O
notes: also called compound 86
For B5, in assay [1], the “Ratio hCT/hAmylin binding” value is 159. The results for the IC50 in assay [2] and in assay [3] were 133 nM and 0.833 nM, respectively.

The values are drawn from patent US20140087995A1 (published 2014).
